T1: huCLL1-K244-Avi-Tev-His (human, UniProt Q5QGZ9 65-265)
T1 construct: extracellular domain
T1 sequence (looked up): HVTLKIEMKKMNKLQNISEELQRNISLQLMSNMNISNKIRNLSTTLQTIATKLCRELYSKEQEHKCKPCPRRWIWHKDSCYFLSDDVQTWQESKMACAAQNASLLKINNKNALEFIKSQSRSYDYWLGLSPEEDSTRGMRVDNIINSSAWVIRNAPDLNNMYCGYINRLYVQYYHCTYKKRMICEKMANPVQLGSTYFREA

T2: huCLL1-Q244-Avi-Tev-His (human, UniProt Q5QGZ9 65-265)
T2 construct: extracellular domain; also called CLL-1 K244Q
T2 sequence (looked up): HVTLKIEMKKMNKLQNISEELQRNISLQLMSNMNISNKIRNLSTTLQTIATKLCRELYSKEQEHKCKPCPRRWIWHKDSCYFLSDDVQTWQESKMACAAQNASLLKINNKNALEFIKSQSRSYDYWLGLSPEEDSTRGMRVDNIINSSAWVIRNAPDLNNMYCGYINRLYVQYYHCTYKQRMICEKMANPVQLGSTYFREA


Experiments:
huCLL1-K244-Avi-Tev-His = biological target: T1, huCLL1-K244-Avi-Tev-His; assay: BLI
Method: (§1) Discovered scFvs were analyzed for binding to huCD33-R69-His or huCD33-G69-Fc recombinant proteins (for anti-CD33 scFvs; for CLL-1 scFvs, huCLL1-K244-Avi-Tev-His or huCLL1-Q244-Avi-Tev-His were used; for FLT3, huFLT3-T227-His or huFLT3-M227-Fc were used) using BLI on a ForteBio Octet HTX instrument. Streptavidin-coated biosensors were loaded with biotinylated anti-V5 tag monoclonal antibody for 5 min and were then quenched and blocked with 20 μM amine-PEG2-Biotin for 5 min. scFvs were captured on biosensors from scFv clone periplasmic extracts. huCD33 (or huCLL-1, or huFLT3) proteins were then associated with the captured scFvs for 2 minutes, followed by dissociation with buffer (1×HBST [10 mM HEPES pH 7.4, 150 mM NaCl, 0.05% Tween-20], 1 g/L BSA) for 5 minutes. […] Data was fitted with 1:1 Langmuir equation and off-rate values were reported.
(§2) Analogous methods were used to assess selectivity of binding of polypeptides to CLL-1 K244 or CLL-1 Q244.

huCLL1-Q244-Avi-Tev-His = biological target: T2, huCLL1-Q244-Avi-Tev-His; assay: BLI
Method: as §1, §2
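Note: Bio-layer interferometry with scFvs captured on biosensors via anti-V5 antibody, exposed 2 min to CLL-1 K244 or Q244 protein, 5 min dissociation, scored as binding, no binding or ambiguous.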

Binder	binding result (huCLL1-K244-Avi-Tev-His)	binding result (huCLL1-Q244-Avi-Tev-His)
Polypeptide No. 44 (scFv, V domains shown, scFv) VH: EVQLLESGGGLVQPGGSLRLSCAASGFTFSSYAMHWVRQAPGKGLEWVADISGSGGLTYYADSVKGRFTISRDNSKNTLYLQMNSLRAEDTAVYYCAREGDQYSSSSFFDYWGQGTLVTVSS VL: not shown	binds	no binding
Polypeptide No. 82 (scFv, V domains shown, scFv) VH: QVQLVQSGAEVKKPGSSVKVSCKASGGTFSNYDISWVRQAPGQGLEWMGGIIPIFGTANYAQKFQGRVTITADESTSTAYMELSSLRSEDTAVYYCAREAEEGGWFDPWGQGTLVTVSS VL: EIVMTQSPATLSVSPGERATLSCRASQSVSSYLAWYQQKPGQAPRLLIYGASTRATGIPARFSGSGSGTEFTLTISSLQSEDFAVYYCQQYAFSPITFGQGTKLEIKR	no binding	binds
Polypeptide No. 86 (scFv, V domains shown, scFv) VH: QVQLVQSGAEVKKPGASVKVSCKASGYTFTTYGISWVRQAPGQGLEWMGWINPNSGDTNYAQKFQGRVTMTRDTSTSTVYMELSSLRSEDTAVYYCARLTTATDSFDLWGRGTLVTVSS VL: not shown	no binding	binds
Polypeptide No. 46 (scFv, V domains shown, scFv) VH: QVQLVQSGAEVKKPGASVKVSCKASGYTFTSYYMHWVRQAPGQGLEWMGMINPSAGSTSYAQKFQGRVTMTRDTSTSTVYMELSSLRSEDTAVYYCASVDSSGWYAPFDYWGQGTLVTVSS VL: DIQMTQSPSSLSASVGDRVTITCRASQSISTYLNWYQQKPGKAPKLLIYDASNLETGVPSRFSGSGSGTDFTLTISSLQPEDFATYYCQQANSFPPTFGGGTKVEIKR	binds	no binding
Polypeptide No. 43 (scFv, V domains shown, scFv) VH: QVQLVQSGAEVKKPGASVKVSCKASGYTFTNYYMHWVRQAPGQGLEWLGWISPYSGDTKYAQTLQGRVTMTRDTSTSTVYMELSSLRSEDTAVYYCARESMDRLDYWGQGTLVTVSS VL: DIQMTQSPSSLSASVGDRVTITCRASQSISTYLNWYQQKPGKAPKLLIYDASNLETGVPSRFSGSGSGTDFTLTISSLQPEDFATYYCQQSYSTPVLTFGGGTKVEIKR	binds	no binding
Polypeptide No. 45 (scFv, V domains shown, scFv) VH: EVQLVESGGGLVKPGGSLRLSCAASGFTFDEFGMNWVRQAPGKGLEWISYISGDSGYTNCADSVKGRFTISRDDSKNTLYLQMNSLKTEDTAVYYCAAGYGGYYFDYWGQGTLVTVSS VL: DIQMTQSPSSLSASVGDRVTITCQASQDIDIYLNWYQQKPGKAPKLLIYAASTLESGVPSRFSGSGSGTDFTLTISSLQPEDFATYYCQQSYSTPPTFGGGTKVEIKR	binds	no binding

Now from value to binder:

binding result (huCLL1-K244-Avi-Tev-His)	binding result (huCLL1-Q244-Avi-Tev-His)	Binder
no binding	binds	Polypeptide No. 84 (scFv, V domains shown, scFv) VH: QVQLVQSGAEVKKPGASVKVSCKASGGTFSNYAISWVRQAPGQGLEWMGWINPNSGGTNYAQKFQGRVTMTRDTSTSTVYMELSSLRSEDTAVYYCARVGYYDSSGGGMDVWGQGTTVTVSS VL: DIQMTQSPSSLSASVGDRVTITCRASQSISSWLAWYQQKPGKAPKLLIYDASNLETGVPSRFSGSGSGTDFTLTISSLQPEDFATYYCLQTHSFPLTFGPGTKVDIKR
no binding	binds	Polypeptide No. 81 (scFv, V domains shown, scFv) VH: EVQLLESGGGLVQPGGSLRLSCAASGFTFSDHYMSWVRQAPGKGLEWVSIIYPDGKTYYADSVKGRFTISRDNSKNTLYLQMNSLRAEDTAVYYCAREGSYGDYDGMDVWGQGTTVTVSS VL: DIQMTQSPSSLSASVGDRVTITCQASQDISNYLNWYQQKPGKAPKLLIYGASTLQSGVPSRFSGSGSGTDFTLTISSLQPEDFATYYCQQSYSTPWTFGQGTKLEIKR
no binding	binds	Polypeptide No. 88 (scFv, V domains shown, scFv) VH: QVQLVQSGAEVKKPGASVKVSCKASGYTFTGYHIHWVRQAPGQGLEWMGRINPNSGGTDYAQKFQGRVTMTRDTSTSTVYMELSSLRSEDTAVYYCARETYSGSYEESFDYWGQGTLVTVSS VL: not shown

— patent US20240101668A1 (WUGEN, published 2024)
